Experimental data published in paper PMC4284802, “The tumour suppressor DLC2 ensures mitotic fidelity by coordinating spindle positioning and cell–cell adhesion” (Nature Communications, 2014).

Molecular target: T1, His-tagged recombinant protein containing the forkhead-associated (FHA) domain of Kif1B (residues 367-999) (human, UniProt O60333-2 367-999)
T1 construct: cloned into pRSET-A; Vector pRSET-A; also called Kif1B FHA domain; His-Kif1B; source: E. coli BL21pLysS, purified
T1 sequence (looked up): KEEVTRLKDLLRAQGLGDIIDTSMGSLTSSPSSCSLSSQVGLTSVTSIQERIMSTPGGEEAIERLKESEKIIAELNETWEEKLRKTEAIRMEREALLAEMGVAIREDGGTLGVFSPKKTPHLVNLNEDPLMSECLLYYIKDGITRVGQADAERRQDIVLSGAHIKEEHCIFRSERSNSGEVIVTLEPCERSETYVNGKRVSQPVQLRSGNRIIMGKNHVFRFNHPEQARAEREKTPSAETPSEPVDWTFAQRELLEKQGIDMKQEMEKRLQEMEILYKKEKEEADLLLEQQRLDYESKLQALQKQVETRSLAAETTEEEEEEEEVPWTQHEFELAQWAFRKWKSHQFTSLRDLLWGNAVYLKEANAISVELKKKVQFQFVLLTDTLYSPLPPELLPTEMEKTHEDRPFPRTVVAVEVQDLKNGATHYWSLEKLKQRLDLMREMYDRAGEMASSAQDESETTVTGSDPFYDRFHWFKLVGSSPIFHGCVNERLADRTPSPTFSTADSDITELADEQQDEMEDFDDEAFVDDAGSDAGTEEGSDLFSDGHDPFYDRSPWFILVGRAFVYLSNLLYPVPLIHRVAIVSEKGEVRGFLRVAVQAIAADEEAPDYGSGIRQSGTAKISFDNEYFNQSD
Assay: pull-down; purified GST-SAM domain on glutathione-agarose beads incubated 2 h with recombinant His-tagged Kif1B fusion proteins; immunoblot with anti-GST and anti-His
Conditions: both partners purified

B1: DLC2 SAM domain (residues 1-130) fused to GST (domain or fragment, human, UniProt Q9Y3M8-1 1-130, looked up)
chain: MFSQVPRTPASGCYYLNSMTPEGQEMYLRFDQTTRRSPYRMSRILARHQLVTKIQQEIEAKEACDWLRAAGFPQYAQLYEDSQFPINIVAVKNDHDFLEKDLVEPLCRRLNTLNKCASMKLDVNFQRKKG
notes: cloned into pGEX4T3; Vector pGEX4T3; also called SAM domain construct; GST-fusion protein containing the SAM domain; source: E. coli BL21pLysS, purified (glutathione-agarose)
B1: binds.
